assay: yeast display, Sf9 membrane polyspecificity reagent, FACS + sequencing; frameworks hold sequencing errors
Outline: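 Using colony PCR, genes from sorted yeast display clones were amplified, then sequenced on MiSeq at 2 × 250 and filtered by CDR length. The clones had been stained with 10% biotinylated, detergent-solubilized Sf9 membrane reagent for 1 hour at 4 °C and sorted by FACS into low and high (top ~1%) gates on anti-HA and streptavidin fluorescence. Polyreactivity labels come from the gate of origin.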

Sequence | polyreactivity (PSR sort gate)
QVQLVESAVGLVQAGGSRRLSCAASGRTFDSNAMGWYRQAPGKEREFVAAISWSGGSTYYADSVKGRFTISRDNAKNTVYLQMNSLKREETAVYYCNRLGRHAPATRYGYWGLGTQVTVSS | high polyreactivity
QVQLVESCGGIVQAGGSLRLRCAASGLIFVANAMGWYRQAPVKESEMVAAISRYGGITYYADSVKGRFTISRDNAKNTVYLEMNSLKPEDTAVYYCAKNLPSNGHYDYWGQGTQVTVSS | low polyreactivity
QVQLVESCGGIVQAGGSLRLSCAASGSTFRVNAMGWYRHSPGKERELVAAIRKSGGSTYADSVKGRFTISRDNAKNTFNLQMNSLKPEDTGVYYCNADATAWLGLADNYWVQGTQVTVSS | low polyreactivity
QVQLVESCGGLVEAGGSLRLSCAASGSILYSNAMGWYRQGPGKESELVAAIRSGGSTSYADSVKGRFTISRDNANNTVYLQMNSLKPDDTAVYYSAADPSSGVTYGMYYWGQGSQVTVSS | low polyreactivity
QVQLVESCGGLVHAGGSLRLSCAASGITLKWNDMGLYRQAPGKEREFVAAITGSTGSTFYADSVKGRFTISRDNAKNTVYLQMNSLKPEDTAVYYCAAGPWFYYWGQGTQVTVSS | low polyreactivity
QVQLVESCGGLVQAGGILRLSCAASGSTFRYYVMGWYRQAPGKERELVAAITSGGSKYYADSVKGRFTISRDNEQNTVYLQMNSLKPDDTAVYYCNKVYSRTFDYWGQGTQVTVSS | high polyreactivity
QVQLVESCGGLVQAGGILRLSCADYGSIFYYNAMGWYRQAPGKERQLVAAITRSGSTNYAESVKLRFTISRDNAKNTVYLQMNSLKPEDTAVYYCAAPWRGSVFRYYSWGQGTQVTVSS | low polyreactivity
QVQLVESCGGLVQAGGRLRLSCAASGRNFQQYAMGWSRQAPGKERELVAAISRGGSTYYADSVKGRFTISRDNAKNTVYLQMNRLKPEDTAVYYCAARWWRRFSGSHSLYDYWGQGTQVTVSS | high polyreactivity
QVQLVESCGGLVQAGGSHRLSCAASGSTFAYNDMGWYRQAPGKERELVADIRSGGNTNYADSVKGRFTISRDNAKNTVYLQMNSLKPEDTAVYYRATDGYRIDVYHPDYRYDYWGQGTQVTVSS | low polyreactivity
QVQLVESCGGLVQAGGSLRLICAASGSIFFRNAKGWYRQAPGKERELVAAIRYTGTSTYYADSVKGRFTISRDNAKNTVYVQMNSLKPEDTAVYYCAKPWGSVRRREMDYWGQGTQVTVSS | low polyreactivity
QVQLVESCGGLVQAGGSLRLSCAASGFICNGYTMGWSRQAPWKERELVAAISGSGGRTYYADSVKGRFTISRDNAKKTVYLQMNSLKPEDTAVYYCAASNWHSRGSGEYYWGQGTQVTVSS | high polyreactivity
QVQLVESCGGLVQAGGSLRLSCAASGFIFYYYAMGWYRQAPGKERELVAGITRGGSTYYADSVKGRFTISRDNAKNTVYLQMNSLKPEDTAVYYCASTYYLSYTSGTFGKFGYWGQGTQVTVSS | high polyreactivity
QVQLVESCGGLVQAGGSLRLSCAASGIIFRYYAMGWYRQAPGKEREFVASINFSGSSTYYADSVKGRFTISRDNAKNSVYLQMKSLKPEDTAVYYCAAGRRWLYDYWGQGTQVTVSS | high polyreactivity
QVQLVESCGGLVQAGGSLRLSCAASGITYVYYAMGWYRQAPGKERELVAGITSGTSTYYADSVKGRFTISRDNAKNTVYLQINSLKPEDTAVYYCATGYRRGSTYGYWGQGTQVTVSS | low polyreactivity
QVQLVESCGGLVQAGGSLRLSCAASGRTFPAYAMGWSRQAPGKERELVAAISSSGSRTYYADSVKGRFTISRDNAKNTVYLQMNSLKQEDTAVYYCAARGGRRQKVNRDDYWGQGTQVTVSS | high polyreactivity
QVQLVESCGGLVQAGGSLRLSCAASGRTFYKNTMGWYRQAPGKERELVATISQRGGSTYYADSVKGRFTISRDNAKNTVFLQMHSLKPEDTAVYYCNARHYYIWWRSPTRTAMNYWGQGTQVTVSS | high polyreactivity
QVQLVESCGGLVQAGGSLRLSCAASGSTFRFNTMGWYRQPPGKERELVAAITRGGSTNYADSVKGRFTISRDNAKNTVYLQMNSLKPEDTAVYFCAAGYCWTFDYDYWGQGTQVTVSS | low polyreactivity
QVQLVESCGGLVQAGGSLRLSCAASGSTFRTYAMGWYRQAPGKERELVASIDSTGSTNYADSVKGRFTISSDNAKNSVYLQMNSLKPEDTAVYDCAAETYSYPPFYAYDYWGQGTQVTVSS | low polyreactivity
QVQLVESCGGLVQAGGSLRLSCAASGSTFSYNAMGWYRQAPGKEREMVAAITYGGGSTYYADSVKGRFTISRDNAKNTVYLQMNSLKPEDTAVYYCAVEKYGRYRPYSYGYWGQGTQVTVSS | high polyreactivity
QVQLVESCGGLVQAGGSLRLSCAASGSTFVVNAMGGYRQAPGKERELVADISFTGDSTFYADSVKGRFTISRDNAKNTVYLEMNSLKPDDTAVYYCAADFRRVFSKYSYYLYFDFDYWGQGTQVTVSS | low polyreactivity
QVQLVESCGGLVQAGGSLRLSCAASGSTFYRNAMGWYRQAPGKEREFVAAISFRGGGTYADSVKGRFTISRDNAKNTVYLQMNSLKPEDTAVYYCAADHLSYRRRYEYWGQGTQVTVSS | low polyreactivity
QVQLVESCGGLVQAGGSLRLSCAASGSTYAMGWYRQAPGKERELVASITSRGGSTYYADSVKGRFTISRDNAKNTVYLQMNSLKPEDTAVYYCNRVYRYPYNYWGQGTQVTVSS | high polyreactivity

Sequence | polyreactivity (PSR sort gate)
QVQLVESCGGLVQAGGSLRLSCAASGYIFLYNTMGWYRQAPWKERELVAAISFRAGSTYYADSVKGRFTISRDNAMNTVYLQMNSLKPEDTAVYYCAKRQRYYLYGHDYWGQGTQVTVSS | low polyreactivity
QVQLVESCGGLVQAGGSLRLSCAASGYIFVNYAMGWYRQAPGKQRELVARITGSGGSTDYADSVKGRFTISRDNAKNTVYLQMNSLKPEDTAVYYCNTKYVRYLRYYTYKYWGHGTQVTVSS | low polyreactivity
QVQLVESCGGLVQAGGSLRLSCAASGYTFGSNAMGWYRQAPGKERELVAAISTNGGRTNYADSVKGRFTISRDNAKNTVYLQMNSLKPEDTAVYYCNTRLRVRYYLSGFDYWGQGTQVTVSS | high polyreactivity
QVQLVESCGGLVQAGGSLRLSCAATGLTISRNVMGWYRQAPGKEREWVAAISRSGSTYYADSVKGRFTISRDNAKNTVYLQMNSLKPEDTAVYYCAKERYYTGRYSGHDYCGQGTQVTVSS | high polyreactivity
QVQLVESCGGLVQAGGSLRLSCADSGRTFGSYAMGWYRQATRKDRELVASISRSGGTTYYADSVKGRFTLSRDNAKNTVYLQMYSQKPEDTAVYYCAAQYVRYGLYYWGQGTQVTVSS | high polyreactivity
QVQLVESCGGLVQEGGSLRLSSAASGSIRYYALGWYRQAPGKESELVAAISSRGTNTYYADSVKGSITISRDNAKNTVYLQMKSQKPEDTAVYYCNAVVGLGYNYWGQGTQVSVSS | high polyreactivity
QVQLVESCGGLVQPGGSLRLSCAASGSTFTRYGFGWYRQATGKEREMVAAITTSGSSTYYADSVKGRFTISRDNAKYTVYLQMNSLKPEETAVYYGAADWSSWGFDYWGQGTQVTVSS | low polyreactivity
QVQLVESCGVLVQAGGSLRLSCDASGSIFVWNAMGWYREAPGKERELVAAIRSDDDSTYYADSVKGLFTISRDNAKNTVYLQMNCLNPEDTAVINALVDSPTFSHVKPWDGGDYWGQGTQVTVSS | low polyreactivity
QVQLVESDGGIVQAGGSLRLTCAASGIIFGYYVMGWYRQEPGKEGELVASITSGGSTNYADSVKGRFTISRDNAKNTVYLQMNSLKPEDTAVYYCAAEERTDTIACWRYPHDYWGQGTQVTVSS | low polyreactivity
QVQLVESDGGLVQAGGSLRLSCAASGSTFRYNAMGWYRQAPGKERELVAAISWGGGTPFYADSVKGRFTISRDNAKNTVYLQMNSLTPEDTAVYYCAASYRDYPWGRYYYWGQGTQVTVSS | low polyreactivity
QVQLVESEGGLVQAGGSLRLSCAASGRTFHYYAMGWYRQAPGKERELVAAISSTGGSTYYADSVKGRFTISRDNAKNTVYLQMNSLKPEDPAVYYCAARRSRGYSPTYDYWGQGTQVTVSS | high polyreactivity
QVQLVESGAGIVQAGGSLRLSCAASGYTFQHYAMGWYRQAPGKERELVAAITRRGSGTYYADSVKGRFTISRDNAKNTVYLQMNSLKPEDTAVYYCGADWYYGDEYEYWGQGTQVNVSS | high polyreactivity
QVQLVESGAGLFQAGGSLRLSCAPSGSIFAPNDMGWYRQAPGKERELVAAITSSGGRTYYADSVKGRFTISRDNAKNTVYLQMNSLKPEDTAVYYCAADHGYQYGYWGQGTHVTVSS | low polyreactivity
QVQLVESGAGLVKAGGSLRLSCAASGRSFRGNVMGWYRQAPGKEREFVAAISSSGGSTYYADSVKGRFTISRDNAKNTVYLQMNSLKPEDTAVYYCAAGGWPYSGGWFFQPNYDYWGQGTQVTVSS | low polyreactivity
QVQLVESGAGLVKAGGSLRLSSAASGSTFGEYDMGWYRQAPGKERELVASITFSAGSTDYADSVKGRFTISRDNAKNTVYLQMNSLNPEDTAVYYCAADGWWPWEYDYWGQGTQGTVSS | low polyreactivity
QVQLVESGAGLVQAAGSLRISSAHSGFSFTYNAMGWYRQAPGKVTEFVASISRSGGRTYYADSVKGRFTISRDNANNTVYLQMNSLKPEDTAVYYCAARNAYVYGMDSWGKGTQVTVSS | low polyreactivity
QVQLVESGAGLVQAGASLRLICAASGRTFPDYAMGWYRQAPGTERELVAAIYSGGGTNYADSVKGRFTISRDNAKNTVYLQMNSLKQEDTAVYYCAATGVPGWVGFDYWGQGTQVTVSS | low polyreactivity
QVQLVESGAGLVQAGGGLRLSCAASGFIFNLYAMGWYREAPGKERELVAAISSGGNTHYADSVKGRFTISRDNAKNTVYLQMNSLKPVDTAVYYCNADVNHVNKAWHVSFHQGYYWGQGTQVTVSS | low polyreactivity
QVQLVESGAGLVQAGGILRLSCAASGRIFQYNAMGWYRQAPGKEREWVAAIRRGGGSTYYADSVKGRFTISRDNAKNTVYLQMNSLKPEDTAVYYCAARRKRVSFYPEYDYWGQGTQVTVSS | low polyreactivity
QVQLVESGAGLVQAGGRLRLSCAASGFIFTRYVMGWYRQAPGKERELVAAIRRGGSTYYADSVKGRFTISRDNAKNTVYLPMNSLKPEDTAVYYCAALYAYSLTARGMEYWGQGTQVTVSS | high polyreactivity
QVQLVESGAGLVQAGGRLRLSCAASGIIFRPYAMGWYRQAPGKERELVAAITGSGVSTYYADSVKGRFTISRDNAKITVYLQMNSLKPEDTAVYYCAKRYNRCDHRYDYWGQGTQVTVSS | low polyreactivity
